Test results published in patent US20100036106.

Target: Glutathione S-transferase (GST) (Schistosoma japonicum) (UniProt P08515)
Assay: FP

Glutathione S-transferase (GST) (Schistosoma japonicum), sequence (P08515 2-218): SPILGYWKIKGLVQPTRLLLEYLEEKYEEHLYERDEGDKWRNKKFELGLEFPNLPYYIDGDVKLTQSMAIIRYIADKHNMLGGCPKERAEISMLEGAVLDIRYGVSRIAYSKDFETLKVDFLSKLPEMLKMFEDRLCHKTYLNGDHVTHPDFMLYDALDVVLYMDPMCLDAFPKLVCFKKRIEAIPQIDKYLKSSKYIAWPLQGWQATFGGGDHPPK

Work on “GGUAGAUACGAUGGANNNNNNNNNNNNNNNNNNNNNNNNNNNNNNCAUGACGCGCAGCCAA [18th RNA pool]” yielded a Kd of 400 nM.
